T1: human wild type Sortilin on S18-HEK cells (human, UniProt Q99523 78-831)
T1 sequence: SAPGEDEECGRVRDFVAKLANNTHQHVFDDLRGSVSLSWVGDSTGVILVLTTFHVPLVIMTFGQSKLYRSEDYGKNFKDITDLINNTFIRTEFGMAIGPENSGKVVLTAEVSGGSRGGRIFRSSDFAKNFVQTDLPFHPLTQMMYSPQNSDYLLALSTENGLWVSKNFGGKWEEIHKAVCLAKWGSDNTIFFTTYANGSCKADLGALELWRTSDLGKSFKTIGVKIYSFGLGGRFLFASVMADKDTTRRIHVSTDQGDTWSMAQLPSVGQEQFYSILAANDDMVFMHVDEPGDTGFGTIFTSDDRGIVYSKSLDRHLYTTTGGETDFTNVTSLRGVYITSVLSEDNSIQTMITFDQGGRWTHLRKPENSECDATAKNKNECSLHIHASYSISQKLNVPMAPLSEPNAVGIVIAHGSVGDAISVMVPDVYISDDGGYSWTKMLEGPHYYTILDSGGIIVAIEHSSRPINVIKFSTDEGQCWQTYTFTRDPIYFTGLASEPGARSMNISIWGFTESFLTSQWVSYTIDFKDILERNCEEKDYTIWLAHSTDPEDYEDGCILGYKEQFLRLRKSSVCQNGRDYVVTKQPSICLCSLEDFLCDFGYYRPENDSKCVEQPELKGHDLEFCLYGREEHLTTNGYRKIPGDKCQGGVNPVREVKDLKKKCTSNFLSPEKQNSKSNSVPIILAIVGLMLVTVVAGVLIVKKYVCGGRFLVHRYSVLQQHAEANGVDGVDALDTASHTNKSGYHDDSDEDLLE


These binders were tested against T1, human wild type Sortilin on S18-HEK … (assay: cell-based or functional assay).

extracellular PGRN in medium of Sortilin over-expressing HEK cells (ELISA), % of untreated control [%] | Binder
121 | 088 (antibody, V domains shown) VH: EVQLLESGGGLVQPGGSLRLSCAASGFTFSTFAMSWVRQAPGKGLEWVSAISGSGGGTYYADSVKGRFTISRDNSKNTLYLQMNSLRAEDTAVYYCATYIVATIADAFDIWGQGTMVTVSS VL: not shown
139 | 562 (antibody, V domains shown) VH: EVQLLESGGGLVQPGGSLRLSCAASGFTFSTFAMSWVRQAPGKGLEWVSAISGSGGSTYYADSVKGRFTISRDNSENTLYLQMNSLRAEDTAVYYCASPITVVRGEAFDIWGQGTMVTVSS VL: not shown
139 | 566 (antibody, V domains shown) VH: EVQLLESGGGLVQPGGSLRLSCVASGFTFSTFAMSWVRQAPGKGLEWVSAISGSGGSTYYADSVRGRFTVSRDNSKNTLYLQMNSLRAEDTAVYYCASPITMVRGEAFDIWGQGTMVTVSS VL: not shown
149 | 849 (antibody, V domains shown) VH: EVQLLESGGGLVQPGGSLRLSCAASGFTFNTFAMNWVRQAPGKGLEWVSAISGSGGSTYYADSVKGRFTISRDNSKNTLYLQMNSLRAEDTAVYYCAALVRGVRDAFDIWGQGTMVTVSS VL: not shown
116 | 093-01 (antibody, V domains shown) VH: VVQLLESGGGLVQPGGSLRLSCAASGFTFSSYAMSWVRQAPGKGLEWVSAISGSGGSTYYADSVKGRFTISRDNSMHTLFLQINSLRAEDTAVYYCVAIAAAGTNYFDYWGQGTLVTVSS VL: not shown
140 | 093-05 (antibody, V domains shown) VH: VVQLLESGGGLVQPGGSLRLSCAASGFTFSSYAMSWVRQAPGKGLEWVSAISGSGGSTYYADSVKGRFTISRDNSMHTLFLQINSLRAEDTAVYYCVAIAAAGTNYFDYWGQGTLVTVSS VL: not shown
125 | 924 (antibody, V domains shown) VH: QVQLQESGPGLVKPSQTLSLTCTVSGGSISSGNYYWNWIRQHPGKGLEWIGYIYYSGSTYYNPSLKSRVTISVDTSKNQFSLKLNSVTSADTAVYYCAALITSQNFFFDYWGQGTLVTVSS VL: not shown
163 | 1276 (antibody, V domains shown) VH: EVQLLESGGGLVQPGGSLRLSCAASGFTFNTFAMNWVRQAPGKGLEWVSAITGSGGSTYYADSVKGRFTISRDNSKNTLYLQMNSLRAEDTAVYYCATPITVVRGVSAFDIWGQGTMVTVSS VL: not shown
117 | 1289 (antibody, V domains shown) VH: EVQLLESGGGLVQPGGSLRLSCAASGFTFSSFAMSWVRQAPGKGLEWVSAISGSGGSTYYADSVKGRFTISRDNSKNTLSLQMNSLRAEDTAVYYCATPITLVRGVGAFDIWGQGTMVTVSS VL: not shown
140 | 531 (antibody, V domains shown) VH: EVQLLESGGGLVQPGGSLRLSCAASGFTFSRYVMSWVRQAPGKGLEWVSTISGSGGSTYYADSVKGRFTISRDNSKNTLFLQMNSLRAEDTAVYYCAEGAFGAFDIWGQGTMVTVSS VL: not shown
166 | 044 (antibody, V domains shown) VH: EVQLLESGGGLVQPGGSLRLSCAASGFTFSSYAMSWVRQAPGKGLEWVSAISGSGGNTYYADSVKGRSTISRDNSKNTLYLQMNSLRAEDTAVYYCASMVRGVFINFDYWGQGTLVTVSS VL: not shown
